The record followed here is patent publication USRE47150 (Bayer, dated 2018).

Assay [1] concerns the target T1, mouse tissue factor pathway inhibitor (TFPI) (mouse, UniProt O54819 29-289, limits assumed).
T1 construct: bought; also called mTFPI; murine TFPI
T1 sequence (looked up): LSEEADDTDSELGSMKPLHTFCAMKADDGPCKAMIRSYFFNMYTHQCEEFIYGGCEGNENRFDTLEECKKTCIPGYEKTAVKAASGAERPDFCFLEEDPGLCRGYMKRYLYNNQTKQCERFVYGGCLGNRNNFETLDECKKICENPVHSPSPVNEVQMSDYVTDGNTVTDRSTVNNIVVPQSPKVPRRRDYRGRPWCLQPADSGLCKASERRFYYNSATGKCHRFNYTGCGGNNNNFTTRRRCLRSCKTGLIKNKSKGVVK
Put plainly: SPR, TFPI immobilized.

The target of assay [2] is T2, recombinant TFPI of the FXa restoring assay (human, mouse or rat; not specified for Tables 9 and 10). As to the kind of experiment: cell-based or functional assay.
The target of assay [3] is T3, human tissue factor pathway inhibitor (TFPI) (human, UniProt P10646 29-304, limits assumed).
T3 construct: bought; also called hTFPI; human TFPI
T3 sequence (looked up): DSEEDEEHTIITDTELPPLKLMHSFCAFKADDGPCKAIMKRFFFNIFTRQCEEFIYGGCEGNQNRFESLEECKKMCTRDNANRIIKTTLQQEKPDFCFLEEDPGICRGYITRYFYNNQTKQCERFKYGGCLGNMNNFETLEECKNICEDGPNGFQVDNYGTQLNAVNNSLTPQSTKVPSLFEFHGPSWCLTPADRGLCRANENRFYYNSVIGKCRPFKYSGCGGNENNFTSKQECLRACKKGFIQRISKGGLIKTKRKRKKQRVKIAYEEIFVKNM
As to the kind of experiment: SPR, TFPI immobilized.

Assay [4] deals with T2, recombinant TFPI of the FXa restoring …. Put plainly: cell-based or functional assay. The source holds these as a separate data set.
Assay [5] concerns the target T3, human tissue factor pathway inhibitor …. Put plainly: SPR, TFPI immobilized. The source holds these as a separate data set.
Assay [6] concerns the target T1, mouse tissue factor pathway inhibitor …. As to the kind of experiment: SPR, TFPI immobilized. This is another data set of the same source.
For assay [7] the target is unchanged. Put plainly: competitive ELISA.
The target of assay [8] is T3, human tissue factor pathway inhibitor …. As to the kind of experiment: competitive ELISA.
Assay [9] has the same target. As to the kind of experiment: SPR, TFPI immobilized. The source holds these as a separate data set.
In assay [10] the target is T1, mouse tissue factor pathway inhibitor …. Put plainly: equilibrium ELISA.
Assay [11] deals with T3, human tissue factor pathway inhibitor …. Put plainly: competitive ELISA. The source holds these as a separate data set.

Positions count from the first letter of the chain named. Numbers in names are those of the source. Read-outs that look alike come from different tables or passages of the source.

B1: 2A8 wild-type Fab (Fab, V domains shown)
VH: QVQLVESGGGLVQPGGSLRLSCAASGFTFRSYGMSWVRQAPGKGLEWVSSIRGSSSSTYYADSVKGRFTISRDNSKNTLYLQMNSLRAEDTAVYYCARKYRYWFDYWGQGTLVTVSS
VL: DIELTQPPSVSVAPGQTARISCSGDNLRNYYAHWYQQKPGQAPVVVIYYDNNRPSGIPERFSGSNSGNTATLTISGTQAEDEADYYCQSWDDGVPVFGGGTKLTVLG
notes: Fab with c-myc (or HA, or none) and 6xHis tag at the C-terminus of the heavy chain; also called 2A8wt; 2A8 wt
Turning to B1, in assay [1], the KD fold improvement came out at 1 fold; the affinity, expressed as Kd, was 3.29 nM; the koff amounted to 0.0031 s⁻¹; the kon was determined as 940000 M⁻¹ s⁻¹. For the same molecule, in [2], the “IC50, FXa restoring assay” value amounted to 0.7 µg/mL and the “Improvement vs parental, FXa restoring assay” value is 1 fold. In [3], this molecule came in with a KD fold improvement of 1 fold, a Kd of 1.85 nM, a koff of 0.0038 s⁻¹ and a kon of 2.05e+06 M⁻¹ s⁻¹. In [4], the “EC50, FXa restoring assay” value amounted to 7.91 nM and the “Improvement vs parental 2A8, FXa restoring assay” value came to 1 fold. Moreover, in assay [5], the Improvement worked out at 1 fold, the Kd was 2.24 nM, the koff came to 0.007 s⁻¹ and the kon stood at 3.13e+06 M⁻¹ s⁻¹. Further, in assay [6], the Improvement worked out at 1 fold, the Kd was found to be 3.51 nM, the koff was 0.00517 s⁻¹ and the kon was found to be 1.47e+06 M⁻¹ s⁻¹.

B2: 2A8-216 (HC S31V+I51D+S55R+K99V/LC Y48F+D91L+V96W) (Fab, V domains shown)
VH: B1 VH with S31V, I51D, S55R, K99V
VL: B1 VL with Y48F, D91L, V96W
In [1], B2 gave a KD fold improvement of 63.9 fold, a Kd of 0.0515 nM, a dissociation rate constant (koff) of 0.000216 s⁻¹ and a kon of 4.19e+06 M⁻¹ s⁻¹. In addition, in assay [3], the KD fold improvement was found to be 39.6 fold, the Kd worked out at 0.0467 nM, the koff is 0.000154 s⁻¹ and the kon was found to be 3.29e+06 M⁻¹ s⁻¹. In [4], the “EC50, FXa restoring assay” value was 1.08 nM and the “Improvement vs parental 2A8, FXa restoring assay” value stood at 7.3 fold. Besides, in [7], the variant/HC_K99L turned out to be 11.9 ratio. The molecule also had a variant/HC_K99L in assay [8] of 16.4 ratio.

B3: 4B7 HC_D62R (Fab, V domains shown)
VH: QVQLQQSGPGLVKPSQTLSLTCAISGDSVSSNSAAWSWIRQSPGRGLEWLGIIYKRSKWYNRYAVSVKSRITINPDTSKNQFSLQLNSVTPEDTAVYYCARWHSDKHWGFDYWGQGTLVTVSS
VL: DIVMTQSPLSLPVTPGEPASISCRSSQSLVFSDGNTYLNWYLQKPGQSPQLLIYKGSNRASGVPDRFSGSGSGTDFTLKISRVEAEDVGVYYCQQYDSYPLTFGQGTKVEIKR
notes: also called 4B7-D62R
Turning to B3, the “kd fold improvement against 4B7” value in assay [9] was around 50 fold. In [10], this molecule had a variant/wild-type of 230 ratio. Moreover, in [2], the “IC50, FXa restoring assay” value came out at 0.058 µg/mL and the “Improvement vs parental, FXa restoring assay” value was determined as 25 fold. In assay [5], this molecule gave an Improvement of 191 fold, a Kd of 0.0582 nM, a koff of 0.000165 s⁻¹ and a kon of 2.83e+06 M⁻¹ s⁻¹. This molecule yielded a variant/wild-type in assay [11] of 32.3 ratio. Also, in assay [6], the Improvement turned out to be 137 fold, binding was put at a Kd of 0.427 nM, the koff worked out at 0.00367 s⁻¹ and the kon worked out at 8.58e+06 M⁻¹ s⁻¹.
